Results from ChEMBL document CHEMBL1156528, “Acetyl-lysine analog peptides as mechanistic probes of protein deacetylases” (J Biol Chem, 2007).

How the values were obtained:
[1] = substrate: CC(=O)NCCCC[C@H](NC(=O)CNC(=O)CNC(=O)[C@@H](NC(=O)[C@H](CO)NC(=O)[C@@H](N)CCCCN)[C@@H](C)O)C(=O)N[C@@H](C)C(=O)N1CCC[C@H]1C(=O)N[C@@H](CCCNC(=N)N)C(=O)N[C@@H](CCCCN)C(=O)N[C@@H](CCC(N)=O)C(=O)O; test: (§1) Activity of Saccharomyces cerevisiae Hst2
[2] = substrate: C[C@H](NC(=O)[C@H](CCCCNC(N)=O)NC(=O)CNC(=O)CNC(=O)[C@@H](NC(=O)[C@H](CO)NC(=O)[C@@H](N)CCCCN)[C@@H](C)O)C(=O)N1CCC[C@H]1C(=O)N[C@@H](CCCNC(=N)N)C(=O)N[C@@H](CCCCN)C(=O)N[C@@H](CCC(N)=O)C(=O)O; test: as §1

B1: NAD-dependent protein deacetylase HST2 (Saccharomyces cerevisiae S288c), P53686 (protein)
chain: MSVSTASTEMSVRKIAAHMKSNPNAKVIFMVGAGISTSCGIPDFRSPGTGLYHNLARLKLPYPEAVFDVDFFQSDPLPFYTLAKELYPGNFRPSKFHYLLKLFQDKDVLKRVYTQNIDTLERQAGVKDDLIIEAHGSFAHCHCIGCGKVYPPQVFKSKLAEHPIKDFVKCDVCGELVKPAIVFFGEDLPDSFSETWLNDSEWLREKITTSGKHPQQPLVIVVGTSLAVYPFASLPEEIPRKVKRVLCNLETVGDFKANKRPTDLIVHQYSDEFAEQLVEELGWQEDFEKILTAQGGMGDNSKEQLLEIVHDLENLSLDQSEHESADKKDKKLQRLNGHDSDEDGASNSSSSQKAAKE
- kcat [1]: 0.2 s⁻¹
- Vmax [2]: 1.3 s⁻¹
- kcat [2]: 1.2 ×10⁻² /s
